{
  "source": "patent US20240016923A1",
  "experiment_in_all_cases": "dose-dependent ELISA, antigen captured by GNA lectin",
  "key": {"[1]": {"target": "membrane-bound E1E2 (mbE1E2) (Hepatitis C virus, isolate H77C (genotype 1a)) (UniProt P27958)"}, "[2]": {"target": "secreted E1E2 with c-Fos/c-Jun leucine zipper scaffold (sE1E2.LZ) (Hepatitis C virus H77; human)"}, "[3]": {"target": "secreted E2 ectodomain (sE2), HCV E2 residues 384-661 (Hepatitis C virus, isolate H77C) (UniProt P27958)"}},
  "data": [
    {"substance": "CBH-4G (antibody)", "values": [
      {"measurement": "Kd", "setting": "[1]", "result": 7.8, "unit": "nM"},
      {"measurement": "Kd", "setting": "[2]", "result": 18, "unit": "nM"},
      {"measurement": "Kd", "setting": "[3]", "result": 0.5, "unit": "nM"}
    ]},
    {"substance": "HC84.24 (antibody)", "values": [
      {"measurement": "Kd", "setting": "[3]", "result": 0.7, "unit": "nM"}
    ]},
    {"substance": "CBH-4D (antibody)", "values": [
      {"measurement": "Kd", "setting": "[1]", "result": 28, "unit": "nM"},
      {"measurement": "Kd", "setting": "[2]", "result": 26, "unit": "nM"},
      {"measurement": "Kd", "setting": "[3]", "result": 1, "unit": "nM"}
    ]},
    {"substance": "HCV1 (antibody)", "values": [
      {"measurement": "Kd", "setting": "[1]", "result": 9.8, "unit": "nM"},
      {"measurement": "Kd", "setting": "[2]", "result": 3.5, "unit": "nM"},
      {"measurement": "Kd", "setting": "[3]", "result": 6.2, "unit": "nM"}
    ]},
    {"substance": "AR5A (antibody)", "values": [
      {"measurement": "Kd", "setting": "[1]", "result": 1.5, "unit": "nM"},
      {"measurement": "Kd", "setting": "[2]", "result": 1.7, "unit": "nM"}
    ]},
    {"substance": "HC-1 AM (affinity-matured HC-1 antibody)", "values": [
      {"measurement": "Kd", "setting": "[1]", "result": 1.5, "unit": "nM"},
      {"measurement": "Kd", "setting": "[2]", "result": 2.9, "unit": "nM"},
      {"measurement": "Kd", "setting": "[3]", "result": 3.6, "unit": "nM"}
    ]},
    {"substance": "AR4A (antibody)", "values": [
      {"measurement": "Kd", "setting": "[1]", "result": 2.3, "unit": "nM"},
      {"measurement": "Kd", "setting": "[2]", "result": 16, "unit": "nM"},
      {"measurement": "fold lower affinity relative to mbE1E2", "setting": "[2]", "result": 8, "unit": "fold"}
    ]},
    {"substance": "HC-11 (antibody)", "values": [
      {"measurement": "Kd", "setting": "[1]", "result": 1.8, "unit": "nM"},
      {"measurement": "Kd", "setting": "[2]", "result": 3.2, "unit": "nM"},
      {"measurement": "Kd", "setting": "[3]", "result": 11, "unit": "nM"}
    ]},
    {"substance": "HC33.1 (antibody)", "values": [
      {"measurement": "Kd", "setting": "[1]", "result": 3.8, "unit": "nM"},
      {"measurement": "Kd", "setting": "[2]", "result": 0.9, "unit": "nM"},
      {"measurement": "Kd", "setting": "[3]", "result": 1.9, "unit": "nM"}
    ]},
    {"substance": "CBH-7 (antibody)", "values": [
      {"measurement": "Kd", "setting": "[1]", "result": 1, "unit": "nM"},
      {"measurement": "Kd", "setting": "[2]", "result": 1.7, "unit": "nM"},
      {"measurement": "Kd", "setting": "[3]", "result": 0.3, "unit": "nM"}
    ]}
  ]
}
